Laboratory results as given in patent CN105348390A (BEIJING WISDOMAB BOITECHNOLOGY CO LTD, dated 2016).
Where a chain is given by its changes, count along the chain named.

B1: S2B8 (scFv)
scFv: QVQLVESGGGLVKPGGSLRLSCAVSGFTFSRHSMNWVRQAPGKGLEWVSSISSGSSNIYYADSVKGRFTISRDNAKNSLYLQMNSLRDEDTAVYYCARGGLGPEYLQHWGQGTLVTVSSGGGGSGGGGSGGGGSSSELTQPASVSGSPGQSITISCTGTSSDIGDNNFVSWYQQYPGKAPKLMIYDVSNRPSGVSNRFSGSKSGNTASLTISGLQAEDEADYYCSSYTSSSTLVFGGGTKVTVLG
notes: also called 克隆S2B8
B2: H4H4-IgG4 (antibody, V domains shown)
VH: QVQLVQSGAEVKKPGASVKVSCKASGYAIYNYGISWVRQAPGQGLEWMGWVSFYNGNTNYAQKLQGRGTMTTDPSTSTAYMELRSLRSDDTAVYYCARGYVMDIWGQGTTVTVSS
VL: DIQMTQSPSSLSASVGDRVTITCRASQSINNWLDWYQQKPGKAPKLLIYAASTRPSGVPSRFSGSGSGTDFTLTISSLQPEDFATYYCQQDQDIPPTFGQGTKVEIKR
B3: H7B12-IgG4 (antibody, V domains shown)
VH: B2 VH with A28T, I29L, Y30N
VL: B2 VL
B4: H8A7-IgG4 (antibody, V domains shown)
VH: B2 VH with I104F
VL: B2 VL
B5: H8F4-IgG4 (antibody, V domains shown)
VH: B2 VH with I29L
VL: B2 VL
B6: S2F5 (scFv)
scFv: QVQLVQSGAEVKKPGSSVKVSCKASGGTFTGYSIHWVRQAPGQGLEWMGWINPISGSANYAQKFQGRVTITADKSTSTAYMELSSLRSEDTAVYYCARTQNNTGYRGTDYWGQGTLVTVSSGGGGSGGGGSGGGSDIQMTQSPSSLSASVGDRVTITCRASQSVSSYLNWYQQKPGKAPKLLIYGASTRPSGVPSRFSGSGSGTDFTLTISSLQPEDFATYYCQQHADTPTTFGQGTKVEIK
notes: also called 克隆S2F5
B7: Alirocumab (antibody, V domains shown)
VH: EVQLVESGGGLVQPGGSLRLSCAASGFTFNNYAMNWVRQAPGKGLDWVSTISGSGGTTNYADSVKGRFIISRDSSKHTLYLQMNSLRAEDTAVYYCAKDSNWGNFDLWGRGTLVTVSS
VL: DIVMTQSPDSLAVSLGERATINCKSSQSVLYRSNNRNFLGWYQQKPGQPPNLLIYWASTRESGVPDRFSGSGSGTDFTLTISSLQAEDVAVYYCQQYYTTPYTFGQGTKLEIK
B8: S2G1 (scFv)
scFv: QMQLVQSGAEVKKPGSSVKVSCKTSGGTFGSSAIHWVRQAPRQGLEWMGRINPVLGTTNYTQKFHDRLTITADESTTTAYMELRSLRSDDTAVYYCAREGIPMIWGQGTMVTVSSGGGGSGGGGSGGGGSDIQMTQSPSSLSASVGDRVTITCRASQGIHNWLNWYQQKPGKAPKLLIYAASNRASGVPSRFSGSGSGTDFTLTISSLQPEDFATYYCQQSGKQPVTFGQGTKVEIK
notes: also called 克隆S2G1
B9: S3A12 (scFv)
scFv: QVQLVQSGAEVKKPGASVKVSCKASGYAIYNYGISWVRQAPGQGLEWMGWVSYFGGSTTYAQKLQGRGTMTTDPSTSTAYMELRSLRSDDTAVYYCAKGYGMEIWGQGTTVSSGGGGSGGGGSGGGGSDIQMTQSPSSLSASVGDRVTITCRASQNVNNWLDWYQQKPGKAPKLLIYAASTRASGVPSRFSGSGSGTDFTLTISSLQPEDFATYYCQQDRDVPVTFGQGTKVEIK
notes: also called 克隆S3A12

Legend:
[1] = biological target: T1, 重组huPCSK9-his (人PCSK9, C端His-tag) (human, UniProt Q8NBP7 54-692); test: solid-phase panning of scFv phage library on huPCSK9-his
T1 construct: Expressed in HEK293 cells; not shown: C-terminal His-tag

[2] = biological target: T1, 重组huPCSK9-his (人PCSK9, C端His-tag); test: SPR, Biacore 3000, antibody captured by anti-human Fc on CM5, huPCSK9 as analyte

T1 sequence (Q8NBP7 other isoform, or with tags, fused parts or gaps): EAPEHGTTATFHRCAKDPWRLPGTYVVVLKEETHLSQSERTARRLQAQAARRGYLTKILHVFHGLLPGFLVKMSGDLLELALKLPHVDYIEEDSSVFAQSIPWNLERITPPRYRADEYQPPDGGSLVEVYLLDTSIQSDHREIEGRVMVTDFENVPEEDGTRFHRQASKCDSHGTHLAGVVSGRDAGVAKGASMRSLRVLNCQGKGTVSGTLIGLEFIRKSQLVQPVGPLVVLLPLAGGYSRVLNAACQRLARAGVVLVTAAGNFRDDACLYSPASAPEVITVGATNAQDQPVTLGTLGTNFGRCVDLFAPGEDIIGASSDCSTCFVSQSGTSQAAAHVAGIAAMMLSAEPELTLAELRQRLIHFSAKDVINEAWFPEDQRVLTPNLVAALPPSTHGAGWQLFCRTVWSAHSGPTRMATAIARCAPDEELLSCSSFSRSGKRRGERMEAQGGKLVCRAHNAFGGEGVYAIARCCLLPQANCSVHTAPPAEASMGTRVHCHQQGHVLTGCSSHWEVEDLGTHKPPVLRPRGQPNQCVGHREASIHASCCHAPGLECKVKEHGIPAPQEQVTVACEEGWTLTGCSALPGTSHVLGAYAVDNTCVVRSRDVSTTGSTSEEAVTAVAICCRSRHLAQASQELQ

Row | Binder | binding result [1] | Kd [2] | koff [2] | kon [2]
1 | B1 | binds |  |  | 
2 | B2 |  | 0.0659 nM | 4.7e-05 s⁻¹ | 714000 M⁻¹ s⁻¹
3 | B3 |  | 0.0323 nM | 3.26e-05 s⁻¹ | 1.01e+06 M⁻¹ s⁻¹
4 | B4 |  | 0.0648 nM | 4.83e-05 s⁻¹ | 746000 M⁻¹ s⁻¹
5 | B5 |  | 0.0675 nM | 4.48e-05 s⁻¹ | 663000 M⁻¹ s⁻¹
6 | B6 | binds |  |  | 
7 | B7 |  | 0.0677 nM | 0.000154 s⁻¹ | 2.27e+06 M⁻¹ s⁻¹
8 | B8 | binds |  |  | 
9 | B9 | binds |  |  | 
